Test results: patent US20090053225A1 (QUARK PHARMACEUTICALS, published 2009)

Tests used:
[1] = molecular target: T1, CD59 purified from human erythrocytes (human, UniProt P13987 26-102); test: ELISA with phage and soluble scFv on coated purified antigen
T1 construct: mature; Native protein purified from red cells; coated on plates for ELISA, or incubated with guinea pig erythrocytes (GPE-CD59) for the reactive lysis test
T1 sequence (looked up): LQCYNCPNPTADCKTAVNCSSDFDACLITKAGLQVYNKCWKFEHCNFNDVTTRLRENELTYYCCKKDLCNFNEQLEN
Method: (§1) Microtiter plates were coated with 100 μl of the various CRPs (10 μg/ml) followed by 100 μl of phage suspension in MPBS. Anti-M13 peroxidase conjugated mAb was used as a secondary antibody. Data represent mean values±SD of three different experiments.
(§2) The specificity of the selected clones was assessed by ELISA using both phage and soluble scFv (FIG. 1).

[2] = molecular target: T2, CD55 purified from human erythrocytes (human, UniProt P08174 35-353); test: as above
T2 construct: mature; Native protein purified from red cells; coated on plates for ELISA, or incubated with antibody-sensitised sheep erythrocytes (EA-CD55) for the hemolytic assay; also called decay-accelerating factor; DAF
T2 sequence (looked up): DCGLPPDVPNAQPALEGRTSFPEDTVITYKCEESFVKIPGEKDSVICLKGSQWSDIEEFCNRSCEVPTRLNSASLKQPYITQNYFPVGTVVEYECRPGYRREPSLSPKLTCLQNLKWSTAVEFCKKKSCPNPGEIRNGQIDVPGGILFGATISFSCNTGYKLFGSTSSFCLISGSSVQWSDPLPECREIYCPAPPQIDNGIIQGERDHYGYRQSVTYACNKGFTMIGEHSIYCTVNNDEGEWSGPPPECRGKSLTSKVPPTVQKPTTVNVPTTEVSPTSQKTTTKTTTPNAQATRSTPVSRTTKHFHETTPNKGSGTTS
Method: as §1, §2

B1: scFv TS-55 (anti-CD55 clone) (scFv)
scFv: SSELTQEPAVSVALGQTVSITCQGDSLRSYYASWYQQKPGQAPIPVIYGKNNRPSGIPDRFSGSSSGNTASLTITGAQAEDEADYYCSSRDNRGTHRWVFGGGTKLTVLSGGSTITSYNVYYTKLSSSGTQVNLRESGGGLVQPGRSLRLSCAASGFTFDDYAMHWVRQAPGKGLEWVSGISWNSGSIGYADSVKGRFTISRDNAKNSLYLQMNSLRAEDTALYYCAKDRSDRGRLLDYWGLGTLVTVS
notes: also called Clone anti CD 55; anti-CD55 scFv
binding result [1]: no binding

B2: scFv TS-59 (anti-CD59 clone) (scFv)
scFv: DIVLTQSPDSLAVSLGERATINCKSSQSVLYSSNNKNYLAWYQQKPGQPPKLLIYWASTRESGVPDRFSGSGSGTDFTPAISSLQAEDVAVYYCQQYYSTPQLTFGGGTKVDIKSGGSTITSYNVYYTKLSSSGTQVQLQQSGGGVVQPGRSLGLSCAASGFTFSSYGMNWVRQAPGKGLEWVSYISSSSSTIYYADSVKGRFTISRDNSKNTLYLQMNSLRAEDTAVYYCARGPGMDVWGQGTTVTVS
notes: also called Clone anti CD 59; anti-CD59 scFv
binding result [2]: no binding
